According to the DeepSol protein solubility set:

Assay: soluble on expression in E. coli; label from the status in PepcDB or PDB records

| Sequence | soluble on expression in E. coli |
| --- | --- |
| MKVAGVDEAGRGPVIGPLVIGVAVIDEKNIERLRDIGVKDSKQLTPGQREKLFSKLIDILDDYYVLLVTPKEIDERHHSMNELEAEKFVVALNSLRIKPQKIYVDSADVDPKRFASLIKAGLKYEATVIAEHKADAKYEIVSAASIIAKVTRDREIEKLKQKYGEFGSGYPSDPRTKEWLEEYYKQYGDFPPIVRRTWETARKIEERFRKNQLTLDKFLK | soluble |
| GMSEPEVPFKVVAQFPYKSDYEDDLNFEKDQEIIVTSVEDAEWYFGEYQDSNGDVIEGIFPKSFVAVQG | soluble |
| MNKYDIAVIGGGMVGAAVAVGFAKQGRSVVVVEGAEPKAFDAAQALDVRVSAISHQSVKLLESLDAWSAIEAMRVCPYRRLETWEHPECRTRFHSDELSLDQLGYIVENRLIQLGLWQAFAQFDNLTVKCPERLKDIDFNDGNRITLESGEQFDANWIIGADGANSKVRQLAGIGVTAWDYRQHCMLINVKTELPQQDITWQQFTPSGPRSFLPLCSLTEDGQEVGQGSLVWYDSPKRIKQLCAMTKPQLREEIVRHFPKELGDIEVLQFGSFPLTRRHAQSYSHRGCVLVGDSAHTINPLAGQGVNLGFKDVDVLLSVTQGQDELTDALLAKYERTRRPDNLLMQTGMDFFYKGFSNDLGPLKFARNAALKLAENSGPIKAQVLKYALGMLEHHHHHH | not soluble |
| GWRAKVAGIDPKGSDTHYSEGSSYTFYPYGQAVLLPNIFAHRDVGNTACPGRYGYAQMDNIRNIAKQKYDSIRSGSGATAPAAPSTPSKPAPAPAAPAAPSAPAAPAGTNPIGLLSQGSTPANAGSLVGLAVAAATSLGLIGNLNNIGDVPVIGGLKLSQLQPIIGKIVELLGNNDISRVWRDVNSFAGAALGNARSPIAHYASATGTPIDYALFDNGIVISNPETGTNALWGTIGDLWAQQGFEAGPLGLPTSSVFEVDGLQRVNFQHGYITFNPTTSAVDIQVQ | not soluble |
| MGSDKIHHHHHHMQKRHKDRQCYFNELANTSRSFYIDYVKQFISLSPSTHILEIGCGEGGNLLPFAELGCKVTGIDRAASRIHQAETFFTASGYKGEFTTTDFFNFSSASRYQLILIHDVIEHISNKEEFFRCLSPLLAKRGIIFWGFPSWQMPFGGHQQICHNRFVSSLPFIHLCPGILYRFLLRCFHETPSCIEELSDIKRCRMTIDTFEQLAEKYGYEITDRQLWFINPHYQQKFHLRPRKLYPVLAQLKYIRNYFSTSCFYITRHRELHD | not soluble |
| MSNFEKRNRKMAEKNIRKPKQERSIEKRNKILQVAKDLFSDKTYFNVTTNEIAKKADVSVGTLYAYFASKEDILTALLKRYNDFFLTTIFADINSQDSLDRFKKNPKEWLNVLINQLLAAEDKIFHAQIEMLAYAIPQAKALLEEHNNNLKNLTYKCLLYYSDQAANPSFKTLSLVVFDFISALVDELLYHEHTQEEAHQIKKTGIDSLDLIIKSYL | soluble |
| MGSDKIHHHHHHYLFQTYGSNKGEIIECKNCYCFKDQWNNIKNNPSINKNAKVLSCWLYYDKASPKPALKIMLINKNKFHRFQYVDAICKNDEIVLEFNGTYKNLENEFSKGISTDEFMTSLDTVWKNAHNIFKTPSSKYSLFVTSKHSNSITKQSNAFYIGKNGALTKISEKDFPLNDVNYMNCSKLDEQDKSSENACIIFK | not soluble |
| PDLAQKAANLTQEELAGLLYDSLYTKILPLSDDIIVYPAHGAGSACGKNMMQETVDSLGNQKRVNYALNQPGKEAFIASVIEGLLPPPAYFGGNVAMNKMGYDSIDNVMERGLSALSATDFEAIAKTSDALVLDTRAPGVFAQGFIPRSINIGLDGDFAPWVGTMIVDVKQPLLLVADPGREQEVITRLSRVGFDQVLGYLDGGFDTWNASGKEIDHVECITANEFAERFCPEESLVFDVRKESEYAAEHVEGAYSRPLAYINDWIQDIPRDRHFYLHCIGGYRSMIASSILLSRGYRNFTDIEGGFASIAQTGVPKTDYVCQSKVSKK | not soluble |
| MKNVTRILTLSNGYHLWSHTSNLGGRTKLLCLHGGPGDTHEVFERFGPELADLDIEVTMYDQLGSWYSDTPNWDDDAIRQQYLTEDYYLSEVDEVRQQLGYKHCYLAGHSWGGMLAMTYAADHQDQLDGLIIISMIDNIADYLKRMHAIRTAEFSPAENAFMLAIEKRQQWNNPHYRQLITHLYHQYINRCHPSMMQHQLDIQAKPVYNHFQGDNEFVVYGVLDDWDFSDTLATIQVPTLLMFADHETMPLATAERMQQRMPNAKLVVTPDSGHNHMVDNPAVFFTYLRNYFSDQLGR | not soluble |
| AHHHHHHGSKAVTFPVPWEYLKRIFEGKNVFVKPATLRVEEGMKVIFYASRENQGWHGEAEVERVEYYTSVEEIIKKYRDKLFLTPEELRRYERDRARWDSGRRKRPWMVLVLRNIEKYPRVVKPKKFIVVSGRYVDEKEYEEIRRSTS | not soluble |
| MSLIEKLRNIAIIAHVDHGKTTLVDKLLQQSGTFDSRAETQERVMDSNDLEKERGITILAKNTAIKWNDYRINIVDTPGHADFGGEVERVMSMVDSVLLVVDAFDGPMPQTRFVTKKAFAYGLKPIVVINKVDRPGARPDWVVDQVFDLFVNLDATDEQLDFPIVYASALNGIAGLDHEDMAEDMTPLYQAIVDHVPAPDVDLDGPFQMQISQLDYNSYVGVIGIGRIKRGKVKPNQQVTIIDSEGKTRNAKVGKVLGHLGLERIETDLAEAGDIVAITGLGELNISDTVCDTQNVEALPALSVDEPTVSMFFCVNTSPFSGKEGKFVTSRQILDRLNKKLVHNVALRVEETEDADAFRVSGRGELHLSVLIENMRREGFELAVSRPKVIFREIDGRKQEPYENVTLDVEEQHQGSVMQALGERKGDLKNMNPDGKGRVRLDYVIPSRGLIGFRSEFMTMTSGTGLLYSTFSHYDDVRPGEVGQRQNGVLISNGQGKAVAFALFGLQDRGKLFLGHGAEVYEGQIIGIHSRSNDLTVNCLTGKKLTNMRASGTDEAVVLVPPIRMTLEQALEFIDDDELVEVTPTSIRIRKRHLTENDRRRANRAPKDEGHHHHHH | soluble |
| SLKKKSLKLTALFLALSCFPAFAEQTVDIEVQGIRGFRAVRNTDLNVNLINKEEMDGSERYQHLVTKAVDRGLRVFGYYESSVRFERKQRQGKRDLLIAHVTPGEPTKIAGTDVQIEGEAAQDENFNALRKNLPKDGVLVEHQTYDDYKTAISRLALNRGYFDGNFKISRLEISPETHQAWWRMLFDSGVRYHYGNITFSHSQIRDDYLNNILNIKSGDPYLMNNLSDLTSDFPSSNWFSSVLVQPNVNHKSKTVDVEIILYPRKKNAMELGVGFSTDGGVHGQIGWTKPWINSRGHSLRSNLYLSAPKQTLEATYRMPLLKNPLNYYYDFAVGWEGEKENDTNTRVLTLSALRYWNNAHGWQYFGGLRMRYDSFTQADITDKTLLLYPTVGFTRTRLRGGSFATWGDVQKITFDLSKRIWLSESSFIKVQASSAWVRTYAENHRVVARAEIGYLHTKGIEKIPPTLRFFAGGDRSVRGYGYKKIAPKNRNGKLVGGSRLLTTSLEYQYQVYPNWWAATFADSGLAADNYTAKELRYGTGVGVRWASPVGAIKFDIATPIRDKDNSKNIQFYIGLGTEI | soluble |
| GPGSMRALTFRSSLCAGRTAVGAMCFGRLWASSTSATEGSEKQNVTEDSETVSVAPVSPEAYAKLEKELSDAKERIAELKKEVLYRAADAENARRIGSEDVTKAKAYGITSFGKDMLDVVDTLERGLEAITKLPQAEVEGHKTLSSIHTGIKLSLKLLLNNLAKHGIEKLDVAVGAKFDPNFHDALLKVPPTAEAPPGHISTVLKTGYKIQDRVLRASQVGVASDD | not soluble |
| MTIAILSTGDEIIHGDTLNTNAHYIAHALCSEGLPLGLQVACSDKENEIIDSLNFLTQHHDILILIGGLGPTKDDITRFALAKFTKEPLLQHADALDHIEKKANIAKISLNQGNLQQCLFPANARLFPNPYGTAMGCSYSWKGKVFILLPGPPRECLPMFNQDVLPLLLQTSRHSNK | not soluble |
| MGSQAIEAHREGAEVYHGAALCAEKAVELLAEIHMPLGLLPLAEMEEVGYNRATGFVWLRQKKAITHTFKQISRQVSFAAEVTAFVEDRRMKRVTGAKTKELLIWVSLSDMFIDKDDASKITFKTPTGLGRTYPVDAFAKEDDGKGKVPAAAAAANGKETAVNGKAK | soluble |
| TEKFTWNTNVSYSTNSNKVVALSSEKFSMDQDYFYTGYTGEPIQTTTHIVQVGKPIGTFYGLKSVDITDDGLWLVENKKGEHVLAEETDATDWQVLGNGIPKHYLNWNNTFNFFNFDLSINMRGAFGFQILNYQRMYYENAKPEIQYNRLNSAFDKVYGKTQLKDDQRYVSYYVEDGDYWKIDNVTLGYTFKLSKQHIIKNLRIYASVLNLATITGYKGMDPEVPLSSNTYGLLDAGTDNRDKYPTNRTYTFGVNLTF | not soluble |
| MLTPPSLSLYIHIPWCVQKCPYCDFNSHAQKGEIPEQEYLDALLQDLDRDIERYQLKGDPRLLHSIFIGGGTPSLISAEGIARLLQGVAERIAFKPEIEITMEANPGTIEAQRFAGYRTAGVTRISIGVQSFEPEKLARLGRIHGQQEAVRAAQLAHQIGLNSFNLDLMHGLPDQTPEQALADLDQAIALNPPHLSWYQLTIEPNTLFYSKPPKLPDEDALWDIFELGHQKLSDAGYVQYEISGYSKPGYQCQHNLNYWRFGDYLGIGCGAHGKLSFADGRIVRTTKTKHPRGYLAALNNLAKAYLDSEQLVADQDKPFEFFMNRFRLIEPCPKADFTATTGLTIDVIRPTLDWALSEGYLSEDDQHWQITEKGKLFLNDLLEAFMADEEELEHHHHHH | not soluble |
| MHISEVKTAFKIADVEYVKDSTKLNFNYLKDLKDENNQPLSQNILTQNVARVYLIVVNGEIKKIGGSQADGGIKSTLNIYKDGGVKGRPNIRSFGVWYFLYHTILTGAKIEFYMIYQPNFETQVKGLFGFCAIKDASISYKLLEQACLTDYRNNSNDALPEWNVQEQGKD | not soluble |
| MSPPSTIAYVLPPGFKFVPNDEEVIHCYLKPYSDGNTNVLLHVPIHLVNIYESNPQTLSEEFQKGNDKEWFIITERNKVDQGLSQTKRVGYGAKRQKRVDTNGGYWHATVAAQKINAGDGVVRNKRPLAYYVGKPSEGVKTDWLMQEYSLDHSSHNNDKDYTLCKIYLTPQATKMNKEVGEEKKKQKKGEAVVSVAPVEALEEQLPCNVEYHQPLAPLDSCQPQPHDLAYQQQQFCPGPLDSYQPQPHDMENQQPHNEKLKKEEDVEQLDLHQPDQGKGC | not soluble |
| MKTITLYLDPASLPALNQLMDFTQNNEDKTHPRIFGLSRFKIPDNIITQYQNIHFVELKDNRPTEALFTILDQYPGNIELNIHLNIAHSVQLIRPILAYRFKHLDRVSIQQLNLYDDGSMEYVDLEKEENKDISAEIKQAEKQLSHYLLTGKIKFDNPTIARYVWQSAFPVKYHFLSTDYFEKAEFLQPLKEYLAENYQKMDWTAYQQLTPEQQAFYLTLVGFNDEVKQSLEVQQAKFIFTGTTTWEGNTEVREYYAQQQLNLLNHFTQAEGDLFIGDHYKIYFKGHPRGGEINDIILNNAKNITNIPANISFEVLMMTGLLPDKVGGVASSLYFSLPKEKISHIIFTSNKQVKSKEDALNNPYVKVMRRLGIIDESQVIFWDSLKELGGG | soluble |
| MSETVQLDVGGTIFKTSKSTLTKFNGFLKIMLESDIGLKIDESGSIFIDRSPKHFDLILNFMRDGDVVLPSCELTVKELLAEAQFYLLDELIELCSLKIEPVQAPKIKLRFIENDSQLLQILAAQQKPMLIIEYCMVGNDMSIPYNFNLYEFIEKQSHQFDIYFQRLSEDESSHKWKARIKWKPTENGYYSQFPYNLRINRGGRIIRDAKFLFLFFSSWLSSKNHCSLLDMCMIPIDCIVCPFQKISMCVPSLIRIPISSRFISRNIKIISFGLQR | soluble |
